Reference: paper PMC10786891, “Massively parallel profiling of RNA-targeting CRISPR-Cas13d”
Where a chain is given by its changes, count along the chain named. In names and notes the source's numbering stands.

B1: target 1 C7U,A16G (mixed)
RNA 1: CACCCGUGCAAAAAUGCAGGGGUCUAAAACUGAGCGGAUAACCUCUCUAUGG
RNA 2: GGGAAUGGAUCCACAUCUACGAAUUCGUACCAUAGGGAGGUUAUUCGCUCACCGAGAUCGGAAGAGCACACGU
B2: target 1 C2A,C4A (mixed)
RNA 1: B1 RNA 1
RNA 2: B1 RNA 2 with G36A, U45C, C48A, C50A
B3: target 1 G5C,G12A (mixed)
RNA 1: B1 RNA 1
RNA 2: B1 RNA 2 with G36A, G40A, U45C, G47C
B4: target 1 insG 3' of 18,insA 3' of 10 (mixed)
RNA 1: B1 RNA 1
RNA 2: GGGAAUGGAUCCACAUCUACGAAUUCGUACCAUAGGAGAGGUUAAUCCGCUCACCGAGAUCGGAAGAGCACACGU
B5: target 1 C7U,G13C (mixed)
RNA 1: B1 RNA 1
RNA 2: B1 RNA 2 with G36A, G39C
B6: target 1 insG 3' of 6,insA 3' of 2 (mixed)
RNA 1: B1 RNA 1
RNA 2: GGGAAUGGAUCCACAUCUACGAAUUCGUACCAUAGAGAGGUUAUCCGGCUCAACCGAGAUCGGAAGAGCACACGU
B7: target 1 insG 3' of 11,insC 3' of 10 (mixed)
RNA 1: B1 RNA 1
RNA 2: B4 RNA 2 with G36A, A37G, G38A, A39G, G41U, U42G, A44C
B8: target 1 del20,del22 (mixed)
RNA 1: B1 RNA 1
RNA 2: GGGAAUGGAUCCACAUCUACGAAUUCGUACUAGAGAGGUUAUCCGCUCACCGAGAUCGGAAGAGCACACGU
B9: target 1 insA 3' of 17,insU 3' of 2 (mixed)
RNA 1: B1 RNA 1
RNA 2: B4 RNA 2 with G36A, A45U, U46C, C48G, G49C, C50U, U51C, C52U
B10: target 1 insU 3' of 20,insC 3' of 12 (mixed)
RNA 1: B1 RNA 1
RNA 2: B4 RNA 2 with A34U, G35A, U42C, A44U
B11: target 1 insG 3' of 14,insC 3' of 14 (mixed)
RNA 1: B1 RNA 1
RNA 2: B4 RNA 2 with G36A, A37G, G38A, A39G, G40C, U42G, A44U
B12: target 1 insU 3' of 12,insC 3' of 5 (mixed)
RNA 1: B1 RNA 1
RNA 2: B6 RNA 2 with A43U, U44A, C45U, G47C, U50C, C51U, A52C
B13: target 1 insC 3' of 8,insA 3' of 5 (mixed)
RNA 1: B1 RNA 1
RNA 2: B6 RNA 2 with G47C, C49A, U50C, C51U, A52C
B14: target 1 insA 3' of 10,insG 3' of 7 (mixed)
RNA 1: B1 RNA 1
RNA 2: B6 RNA 2 with U44A, C45U, G48C, C49G, U50C, C51U, A52C
B15: target 1 del17,del19 (mixed)
RNA 1: B1 RNA 1
RNA 2: B8 RNA 2 with U31C, G33A
B16: target 1 insG 3' of 2,insU 3' of 1 (mixed)
RNA 1: B1 RNA 1
RNA 2: B6 RNA 2 with G48C, C49U, U50C, C51G, A53U
B17: target 1 G12U,G15A (mixed)
RNA 1: B1 RNA 1
RNA 2: B1 RNA 2 with G36A, G37A, G40U, U45C
B18: target 1 insG 3' of 6,insC 3' of 1 (mixed)
RNA 1: B1 RNA 1
RNA 2: B6 RNA 2 with A53C
B19: target 1 del20 (mixed)
RNA 1: B1 RNA 1
RNA 2: GGGAAUGGAUCCACAUCUACGAAUUCGUACCUAGAGAGGUUAUCCGCUCACCGAGAUCGGAAGAGCACACGU
B20: target 1 insG 3' of 18,insU 3' of 4 (mixed)
RNA 1: B1 RNA 1
RNA 2: B4 RNA 2 with A45U, U46C, C48G, G49C, C50U
B21: target 1 insG 3' of 11,insU 3' of 9 (mixed)
RNA 1: B1 RNA 1
RNA 2: B4 RNA 2 with G36A, A37G, G38A, A39G, G41U, U42G, A45U
B22: target 1 insC 3' of 20,insC 3' of 3 (mixed)
RNA 1: B1 RNA 1
RNA 2: B4 RNA 2 with U33C, A34U, G35A, A45U, U46C, C48G, G49C, C50U, U51C
B23: target 1 insA 3' of 10,insG 3' of 9 (mixed)
RNA 1: B1 RNA 1
RNA 2: B4 RNA 2 with G36A, A37G, G38A, A39G, G41U, U43A, A45G
B24: target 1 insA 3' of 15,insU 3' of 4 (mixed)
RNA 1: B1 RNA 1
RNA 2: B6 RNA 2 with G39A, U41G, A43U, U44A, C45U, G47C, C51U, A52C
B25: target 1 complement block 3-14 (mixed)
RNA 1: B1 RNA 1
RNA 2: GGGAAUGGAUCCACAUCUACGAAUUCGUACCAUAGAGUCCAAUAGGCGACACCGAGAUCGGAAGAGCACACGU
B26: target 1 C6G,C22G (mixed)
RNA 1: B1 RNA 1
RNA 2: B1 RNA 2 with C30G, G36A, U45C, C46G
B27: target 1 A1C,G12A (mixed)
RNA 1: B1 RNA 1
RNA 2: B1 RNA 2 with G36A, G40A, U45C, A51C
B28: target 1 insA 3' of 22,insU 3' of 2 (mixed)
RNA 1: B1 RNA 1
RNA 2: GGGAAUGGAUCCACAUCUACGAAUUCGUACACAUAGAGAGGUUAUCCGCUCUACCGAGAUCGGAAGAGCACACGU
B29: target 1 C6U,G13U (mixed)
RNA 1: B1 RNA 1
RNA 2: B1 RNA 2 with G36A, G39U, U45C, C46U
B30: target 1 insG 3' of 2,insA 3' of 2 (mixed)
RNA 1: B1 RNA 1
RNA 2: B6 RNA 2 with G48C, C49U, U50C, C51G
B31: target 1 insG 3' of 11,insG 3' of 6 (mixed)
RNA 1: B1 RNA 1
RNA 2: B6 RNA 2 with U42G, A43U, U44A, C45U, G47C, C49G, U50C, C51U, A52C
B32: target 1 insA 3' of 4,insA 3' of 4 (mixed)
RNA 1: B1 RNA 1
RNA 2: B6 RNA 2 with G48C, C49A, U50A, C51U, A52C

Molecular target: T1, EsCas13d, nuclease-dead (Eubacterium siraeum, UniProt B0MS50, R295A;H300A;R849A;H854A)
T1 sequence: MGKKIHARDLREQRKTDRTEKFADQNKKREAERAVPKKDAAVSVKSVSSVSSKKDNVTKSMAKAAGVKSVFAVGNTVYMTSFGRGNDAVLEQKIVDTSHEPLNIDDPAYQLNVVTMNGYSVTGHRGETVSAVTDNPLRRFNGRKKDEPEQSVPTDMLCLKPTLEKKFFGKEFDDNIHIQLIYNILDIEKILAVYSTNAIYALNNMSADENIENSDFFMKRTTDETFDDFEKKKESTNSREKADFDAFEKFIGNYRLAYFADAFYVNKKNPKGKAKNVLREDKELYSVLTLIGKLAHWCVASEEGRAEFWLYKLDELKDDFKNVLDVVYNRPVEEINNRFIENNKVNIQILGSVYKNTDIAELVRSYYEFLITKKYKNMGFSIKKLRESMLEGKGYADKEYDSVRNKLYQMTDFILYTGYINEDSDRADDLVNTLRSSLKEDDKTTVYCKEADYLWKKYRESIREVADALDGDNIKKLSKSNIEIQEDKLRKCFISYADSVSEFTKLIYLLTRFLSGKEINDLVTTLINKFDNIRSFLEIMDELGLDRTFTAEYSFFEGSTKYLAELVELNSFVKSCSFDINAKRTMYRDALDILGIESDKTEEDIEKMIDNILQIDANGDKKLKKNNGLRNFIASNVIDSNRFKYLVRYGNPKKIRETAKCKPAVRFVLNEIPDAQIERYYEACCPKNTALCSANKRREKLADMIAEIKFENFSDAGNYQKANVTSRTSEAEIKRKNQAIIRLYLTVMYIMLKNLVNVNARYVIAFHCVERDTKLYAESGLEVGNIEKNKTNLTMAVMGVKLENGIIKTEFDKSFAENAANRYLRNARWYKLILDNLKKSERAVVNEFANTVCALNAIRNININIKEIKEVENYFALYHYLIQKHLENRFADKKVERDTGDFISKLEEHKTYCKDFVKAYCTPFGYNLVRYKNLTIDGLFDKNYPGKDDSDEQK
Assay: crRNA (strand 1, pre-loaded); Mg2+; 40 mM Tris-HCl pH 7.5, 150 mM NaCl, 6 mM MgCl2, 1 mM DTT, 0.1% Tween-20, 0.2 mg/ml BSA; 25 C; 10 min per concentration, then washed
Settings: tags: His6-TwinStrep-SUMO cleaved; N-terminal SNAP kept (SNAP-Surface 488); label: 3' end held by stalled T7 RNA polymerase

Binder | Kd [nM]
B1 | 29.9 ± 2.6
B2 | 10.3 ± 0.5
B3 | 8.6 ± 0.4
B4 | 64 ± 6
B5 | ~70
B6 | 12.6 ± 0.7
B7 | 21.3 ± 0.9
B8 | 9 ± 1.2
B9 | 15.4 ± 1.6
B10 | 37 ± 14
B11 | 34 ± 6
B12 | 9.8 ± 1.2
B13 | 13.2 ± 1.2
B14 | 12.4 ± 0.7
B15 | 50 ± 5
B16 | 9.9 ± 0.9

Binder | Kd [nM]
B17 | 11.3 ± 1.3
B18 | 13.1 ± 0.9
B19 | 31 ± 1.6
B20 | 63 ± 4
B21 | 28 ± 5
B22 | 8.5 ± 0.4
B23 | 18.3 ± 0.8
B24 | 9.5 ± 1.2
B25 | ~60
B26 | 35 ± 5
B27 | 6.6 ± 0.5
B28 | 14.6 ± 1
B29 | 38 ± 5
B30 | 10 ± 0.8
B31 | 39 ± 4
B32 | 5.91 ± 0.24
